From publication PMC8048842, “A Cyanine‐Bridged Somatostatin Hybrid Probe for Multimodal SSTR2 Imaging in Vitro and in Vivo: Synthesis and Evaluation” (Chembiochem, 2021) come the findings set out here.

Data set [1] concerns BON‐SSTR2 cells. Briefly: Toxicity test, cell number (DAPI nuclei counting). It counts as cell-based, human. The note with it: 96 h treatment, up to a concentration of 10 μM, quadruplicates, n=2 (Figure S2). How it is done: (§1) Toxicity tests: BON‐SSTR2 cells were seeded in quadruplicates in 96 well plates at a density of 5,000 cells per well and grown overnight. […] Metabolic activity and cell number were determined after another 96 h. For this, 100 μL medium containing AlamarBlue™ redox indicator (ThermoFisher) were added on top of each well, incubated for 3–4 h and the resulting fluorescence was measured using an EnVision Multilabel Plate Reader (PerkinElmer). Afterwards, the supernatant was removed; cells were fixated with 4 % v/v formaldehyde for 10 min and stained with 1 μg/mL DAPI in PBS/0.1 % v/v Triton for another 10 min. Four fields per well were imaged using an IN Cell Analyzer 1000 (GE Healthcare) with a 4x objective and nuclei were counted by Investigator software (GE Healthcare). All values were normalized to the control treated with vehicle and analyzed using GraphPad Prism 5.04.

Data set [2] has as its target T1, ratSSTR2‐GFP fusion protein (Rattus norvegicus, UniProt P30680).
T1 construct: expressed in transfected cells
Briefly: Endocytosis / receptor internalization assay in RIN1038 cells. The class given is cell-based. From the text: Endocytosis assay: Rat insulinoma RIN1038 cells stably expressing a ratSSTR2‐GFP fusion protein almost exclusively show green cell membrane fluorescence in the resting state while in the presence of a functional agonist, the receptor‐GFP fusion protein is translocated to a perinuclear endocytic vesicle compartment. This shift is readily recognized by inspection of the fluorescent image and can be detected by software‐based quantitation algorithms. […] Mounted cells were imaged using a confocal laser‐scanning microscope (LSM510, Carl Zeiss) with a helium–neon laser at 488 and 543 nm, BP505‐525 and LP560 emission filters and a 63x NeoFluar oil immersion objective. […] For automated microscopy, microscopic fluorescence images were recorded by an IN Cell Analyzer 1000 (GE Healthcare) with 20x magnification at 5 frames per well in a 96 well format. Image processing was performed with In Cell Investigator software (GE Healthcare) applying the provided granularity algorithm. The output of the analysis was indicated as vesicle area/cell and was utilized for calculation of concentration‐response curves resulting in the determination of half‐maximal activity (EC50).

Data set [3] deals with BON‐SSTR2 cells. Briefly: Toxicity test, metabolic activity (AlamarBlue). The note with it: 96 h treatment, up to a concentration of 10 μM, quadruplicates, n=2 (Figure S2). The class given is cell-based, human. How it is done:
as §1
Background: Alamar Blue is a resazurin reagent that responds to reducing activity.

Another data set can be described thus: in vivo. The note with it: female, NMRI-Foxn1nu/Foxn1nu nude, mouse, iv, total radioactivity.

Molecules are shown by their SMILES. Where two headings read alike, the source gives them in different places.

T1 sequence (P30680 whole entry, the tested form may be a part): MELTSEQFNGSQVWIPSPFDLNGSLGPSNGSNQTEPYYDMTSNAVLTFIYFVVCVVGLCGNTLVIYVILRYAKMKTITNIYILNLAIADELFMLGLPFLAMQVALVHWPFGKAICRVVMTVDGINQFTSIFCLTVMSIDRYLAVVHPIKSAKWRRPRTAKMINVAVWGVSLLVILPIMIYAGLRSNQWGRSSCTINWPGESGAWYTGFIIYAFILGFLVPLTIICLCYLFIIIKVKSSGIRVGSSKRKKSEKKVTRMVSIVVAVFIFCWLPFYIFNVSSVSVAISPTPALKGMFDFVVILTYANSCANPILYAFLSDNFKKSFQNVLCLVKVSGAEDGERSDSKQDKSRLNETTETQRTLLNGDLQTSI

One may read the EC50 as the concentration needed to bring the measured effect to its halfway point. On to `C[C@@H](O)[C@H](NC(=O)[C@@H]1CSSC[C@H](NC(=O)[C@@H](Cc2ccccc2)NC(=O)c2ccc3c(c2)C(C)(C)/C(=C/C=C/C2=[N+](C)c4ccc(CNC(=O)CNC(=O)CN5CCN(CC(=O)O)CCN(CC(=O)O)CCN(CC(=O)O)CC5)cc4C2(C)C)N3CCCCS(=O)(=O)[O-])C(=O)N[C@@H](Cc2ccc(O)cc2)C(=O)N[C@H](Cc2c[nH]c3ccccc23)C(=O)N[C@@H](CCCCN)C(=O)N[C@@H]([C@@H](C)O)C(=O)N1)C(=O)O` [DOTA‐ICC‐TATE], for which the “inhibition of proliferation (cell count, DAPI, % control)” value in the data set on BON‐SSTR2 cells [1] is listed as “does not inhibit”. Moreover, the concentration giving a half-maximal response (EC50) was 4.21e-10 M in data set [2] (RIN1038-rSSTR2GFP, axis log DOTA-ICC-TATE [M], R square 0.9899, read-out: EC50 internalization as printed in Figure S2 D) and 4.2e-10 M in data set [2] (RIN1038 ratSSTR2‐GFP cells, eleven concentrations 3 pM–300 nM, 30 min, 37 °C, quadruplicates, vesicle area/cell, read-out: EC50 of SSTR2‐GFP fusion protein internalization). Moreover, the “cellular uptake: colocalization of ICC dye signal with internalized GFP‐fused SSTR2” value in data set [2] (RIN1038 cells overexpressing SSTR2‐GFP, 1 μM conjugate, 30 min, 37 °C, confocal microscopy) is recorded as “clearly colocalized”. Besides, the “inhibition of metabolism (AlamarBlue fluorescence, % control)” value with BON‐SSTR2 cells [3] was “does not inhibit”.
As usually defined, the tissue uptake is the share of the injected amount in each gram of the tissue. Regarding `C[C@@H](O)[C@H](NC(=O)[C@@H]1CSSC[C@H](NC(=O)[C@@H](Cc2ccccc2)NC(=O)c2ccc3c(c2)C(C)(C)/C(=C/C=C/C2=[N+](C)c4ccc(CNC(=O)CNC(=O)CN5CCN(CC(=O)O)CCN(CC(=O)O)CCN(CC(=O)O)CC5)cc4C2(C)C)N3CCCCS(=O)(=O)[O-])C(=O)N[C@@H](Cc2ccc(O)cc2)C(=O)N[C@H](Cc2c[nH]c3ccccc23)C(=O)N[C@@H](CCCCN)C(=O)N[C@@H]([C@@H](C)O)C(=O)N1)C(=O)O` [^68Ga‐DOTA‐ICC‐TATE, metal not drawn], the tissue uptake at 1 h was around 30 %ID/g in “in vivo” (ex vivo biodistribution uptake in kidneys) and 5 %ID/g in “in vivo” (ex vivo biodistribution uptake in liver).
